Measurements reported in article PMC12042621 (Structure (London, England : 1993), 2025).

B1: S1-RBD-14_(E89K) (VHH)
VHH: QVQLVESGGGLVQAGGSVRLSCAASGRSFSINPMGWFRQAPGKEREFVAAISWSGSKTVYVDSVKGRFSISRDNAKNTVYLQMNSLKPEDTAVYHCAVASRGPVYGANYVPGPHEYEYWGQGTQVTVS
B2: S1-RBD-42_(E88K) (VHH)
VHH: QVQLVESGGGLVQAGGSLRLSCVVSGSTFSNTFMDWYRQAPGKQREFVATISSGGTTNYAVFVKGRFTISRDGAKNTVYLQMNSLKPEDTAVYYCHAALPIGGDYWGQGTQVTVS

Target: SARS-CoV-2 spike S1 (SARS-CoV-2, wild type (Wuhan-Hu-1), UniProt P0DTC2)
Experiment: SPR

Row | Binder | Kd [nM]
1 | B1 | 0.3
2 | B2 | 0.1
